T1: human alpha/beta hydrolase domain 6 (hABHD6) (Homo sapiens, UniProt Q9BV23, DEL38-40)
T1 construct: gene ABHD6; hΔ29-3-ABHD6 (first 29 residues and Y38YW deleted, N-terminal His6) for MS; full-length hABHD6 in solubilized E. coli membrane fraction for IC50
T1 sequence (Q9BV23 with tags, fused parts or gaps DEL38-40): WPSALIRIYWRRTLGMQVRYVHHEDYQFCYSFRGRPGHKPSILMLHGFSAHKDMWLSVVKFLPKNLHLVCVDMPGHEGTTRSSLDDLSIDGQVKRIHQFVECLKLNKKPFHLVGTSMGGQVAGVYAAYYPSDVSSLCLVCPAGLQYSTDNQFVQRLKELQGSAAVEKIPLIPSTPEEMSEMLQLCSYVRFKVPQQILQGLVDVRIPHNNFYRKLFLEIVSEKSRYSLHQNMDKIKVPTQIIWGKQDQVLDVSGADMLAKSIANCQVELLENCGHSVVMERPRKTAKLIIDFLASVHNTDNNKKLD

B1: human alpha/beta hydrolase domain 6 (hABHD6) (Homo sapiens; DEL38-40) (protein)
chain: T1 sequence (Q9BV23 with tags, fused parts or gaps DEL38-40)

Legend:
[1] = target: T1, human alpha/beta hydrolase domain 6 (hABHD6); assay: MALDI-TOF MS of tryptic digest showing +[…] Da adduct on purified enzyme; fluorometric AHMMCE inhibition assay; assay type: binding
[2] = substrate: CCCCC/C=C\C/C=C\C/C=C\C/C=C\CCCC(=O)OC(CO)CO; assay: HPLC quantification of arachidonic acid formed, Michaelis-Menten kinetics (Km); assay type: biochemical, Homo sapiens

| Molecule | IC50 [1] [nM] | Km [2] [µM] | Vmax [2] [µM/min/mg] |
| --- | --- | --- | --- |
| CN(C)C(=O)n1nnc(Cc2ccc(-c3ccccc3)cc2)n1 [AM6701] | 0.9 | – | – |
| B1 | – | 139 | 0.35 |

Source: PMC6351631, “Biochemical and Proteomic Characterization of Recombinant Human α/β Hydrolase Domain 6” (Scientific Reports, 2019)
